Measured values reported in paper PMC6403000.
Blank lines part the entries; values can stand above or below the substance they belong to.

Legend:
Assay in all cases: SEC
[1] = biological target: CtHsp104 lacking the NTD (residues 153-882) (Calcarisporiella thermophila)
[2] = biological target: CtHsp104 lacking the NTD and the CTT (residues 153-864) (Calcarisporiella thermophila)
[3] = biological target: CtHsp104 lacking the NTD with mutated Walker B motifs (E275Q:E679Q) (Calcarisporiella thermophila)
[4] = biological target: CtHsp104 lacking the NTD with mutated arginine fingers (R328M/R757M) (Calcarisporiella thermophila)

- stoichiometry N [1]: 6
Substance: CtHsp104 lacking the NTD (residues 153-882) (domain or fragment)

- stoichiometry N [2]: 6
Substance: CtHsp104 lacking the NTD and the CTT (residues 153-864) (domain or fragment)

- stoichiometry N [3]: 6
Substance: CtHsp104 lacking the NTD with mutated Walker B motifs (E275Q:E679Q) (domain or fragment)

- stoichiometry N [4]: 6
Substance: CtHsp104 lacking the NTD with mutated arginine fingers (R328M/R757M) (domain or fragment)
